The data set addresses Ago2 (human, UniProt Q9UKV8 1-859). Nature of the data set: EMSA; Ago2 12.5, 25, 50, 100 mM (so in the source) with 40 mM miR-965; 1 mM MgCl2; shifted band increases with Ago2; 0.1 M KCl, 1 mM DTT, 1 mM MgCl2, 10 mM HEPES pH 7.6, 30 min at 37 C; 1% agarose gel, ethidium bromide then Coomassie stain. Conditions: protein: recombinant; single strand printed.

The text below walks through data of publication PMC7318764, “Shrimp miR-965 induced the human melanoma stem-like cell apoptosis and inhibited their stemness by disrupting the MCL-1-ER stress-XBP1 feedback loop in a cross-species manner”.

Chain of Ago2 (Q9UKV8 whole entry): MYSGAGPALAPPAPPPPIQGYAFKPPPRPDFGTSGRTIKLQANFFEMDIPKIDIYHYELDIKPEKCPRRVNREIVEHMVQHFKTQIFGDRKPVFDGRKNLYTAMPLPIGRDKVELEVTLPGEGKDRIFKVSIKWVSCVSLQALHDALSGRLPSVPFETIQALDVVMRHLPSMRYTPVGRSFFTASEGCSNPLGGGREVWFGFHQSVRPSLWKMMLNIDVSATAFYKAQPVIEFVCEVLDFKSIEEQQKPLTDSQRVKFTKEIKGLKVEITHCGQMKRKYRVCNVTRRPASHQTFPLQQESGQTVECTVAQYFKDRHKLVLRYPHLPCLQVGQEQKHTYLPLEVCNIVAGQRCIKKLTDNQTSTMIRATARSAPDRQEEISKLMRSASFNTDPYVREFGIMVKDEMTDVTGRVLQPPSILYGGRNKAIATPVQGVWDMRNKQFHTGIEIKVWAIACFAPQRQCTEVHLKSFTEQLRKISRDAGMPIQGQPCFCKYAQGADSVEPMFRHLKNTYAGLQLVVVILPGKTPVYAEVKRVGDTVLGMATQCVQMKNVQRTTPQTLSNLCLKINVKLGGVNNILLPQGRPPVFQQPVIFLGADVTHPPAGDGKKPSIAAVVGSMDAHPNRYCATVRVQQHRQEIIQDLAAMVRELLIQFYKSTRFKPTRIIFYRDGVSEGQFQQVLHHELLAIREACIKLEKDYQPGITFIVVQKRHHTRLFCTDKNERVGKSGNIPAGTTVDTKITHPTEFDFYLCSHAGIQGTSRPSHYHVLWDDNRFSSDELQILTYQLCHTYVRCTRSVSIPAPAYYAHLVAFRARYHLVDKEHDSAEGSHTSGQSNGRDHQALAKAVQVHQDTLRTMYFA

B1: shrimp miR-965 (ssRNA)
RNA: UAAGCGUAUGGCUUUUCCCCUC
B1: the binding result was “binds”.
